Like-named read-outs stand apart in the source and are kept apart here. Primed or numbered codes have the meaning given here. Where no end group is shown, it is not given here. [ ]: non-standard residue; d: D form. APC″ = 3-aminopyrrolidine-4-carboxylic acid (cyclic β-amino acid); ACPC″ = 2-aminocyclopentanecarboxylic acid (x in the sequences); APC = 3-aminopyrrolidine-4-carboxylic acid; ACPC = 2-aminocyclopentanecarboxylic acid; β3hY = N[C@H](CC(=O)O)Cc1ccc(O)cc1; β3hR = N=C(N)NCCC[C@H](N)CC(=O)O; β3hT = C[C@@H](O)[C@H](N)CC(=O)O; β3hQ = NC(=O)CC[C@H](N)CC(=O)O; β3hN = NC(=O)C[C@H](N)CC(=O)O; β3hL = CC(C)C[C@H](N)CC(=O)O; β3hK = NCCCC[C@H](N)CC(=O)O; β3hV = CC(C)[C@H](N)CC(=O)O; β3hD = NC(CC(=O)O)CC(=O)O; β3hS = N[C@@H](CO)CC(=O)O; Aib = CC(C)(N)C(=O)O; βAla = NCCC(=O)O
T1: VPAC1 receptor (UniProt P32241 31-457, limits assumed)
T1 sequence (looked up): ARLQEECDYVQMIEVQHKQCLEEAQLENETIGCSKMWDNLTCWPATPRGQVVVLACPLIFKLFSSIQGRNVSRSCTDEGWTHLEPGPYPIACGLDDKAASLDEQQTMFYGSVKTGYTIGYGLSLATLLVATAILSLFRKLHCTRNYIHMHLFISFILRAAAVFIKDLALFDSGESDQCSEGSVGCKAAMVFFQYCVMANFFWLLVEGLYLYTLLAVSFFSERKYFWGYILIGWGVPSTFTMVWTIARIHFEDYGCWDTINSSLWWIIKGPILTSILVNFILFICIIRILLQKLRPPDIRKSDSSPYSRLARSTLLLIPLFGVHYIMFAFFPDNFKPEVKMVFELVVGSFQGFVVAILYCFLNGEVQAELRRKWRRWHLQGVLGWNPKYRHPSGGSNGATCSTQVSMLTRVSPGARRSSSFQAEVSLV

T2: VPAC2 receptor (UniProt P41587 24-438, limits assumed)
T2 sequence (looked up): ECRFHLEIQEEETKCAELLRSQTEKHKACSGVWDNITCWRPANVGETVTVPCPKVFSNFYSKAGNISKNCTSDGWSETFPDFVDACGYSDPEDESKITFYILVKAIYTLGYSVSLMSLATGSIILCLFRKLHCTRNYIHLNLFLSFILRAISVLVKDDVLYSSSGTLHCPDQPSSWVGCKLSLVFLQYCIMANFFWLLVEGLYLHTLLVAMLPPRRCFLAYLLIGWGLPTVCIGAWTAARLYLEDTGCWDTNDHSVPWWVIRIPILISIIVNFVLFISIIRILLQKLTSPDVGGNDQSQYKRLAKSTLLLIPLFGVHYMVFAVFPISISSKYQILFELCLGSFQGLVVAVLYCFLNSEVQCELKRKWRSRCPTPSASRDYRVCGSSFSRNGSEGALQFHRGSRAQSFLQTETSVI


Tests used:
Experiment in all cases: cell-based or functional assay
VPAC1 receptor [1] = target: T1, VPAC1 receptor
VPAC2 receptor [2] = target: T2, VPAC2 receptor
VPAC1 receptor [3] = target: T1, VPAC1 receptor; remark: listed apart in the source
VPAC2 receptor [4] = target: T2, VPAC2 receptor; remark: listed apart in the source

Row | Binder | EC 50 vpac1 (Molar), cell-based cAMP assay (VPAC1 receptor [1]) [nM] | EC50 vpac2 (Molar), cell-based cAMP assay (VPAC2 receptor [2]) [nM] | EC 50 vpac1 (Molar), cell-based cAMP assay (VPAC1 receptor [3]) [nM] | EC50 vpac2 (Molar), cell-based cAMP assay (VPAC2 receptor [4]) [nM]
1 | H[ACPC]DA[ACPC]FTDNY[β3hT]RLR[β3hK]QLA[β3hV]KKY[β3hL]NAI[β3hL]N (not fully specified (C-terminus); printed as HxDAxFTDNYtRLRkQLAvKKYlNAIlN) [LBT-V103] | 0.357 | 79.6 | – | –
2 | H[ACPC]DA[β3hV]FTDNY[β3hT]RLR[β3hK]QLA[β3hV]KKY[β3hL]NAI[β3hL]N (not fully specified (C-terminus); printed as HxDAvFTDNYtRLRkQLAvKKYlNAIlN) [LBT-V104] | 4.43 | 262 | – | –
3 | H[dF]DA[β3hV]FTD[β3hN]Y[β3hT]RLR[β3hK]QLA[β3hV]KKY[β3hL]NAI[β3hL]N (not fully specified (C-terminus); printed as HfDAvFTDnYtRLRkQLAvKKYlNAIlN) [LBT-V129] | > 1000 | 989 | – | –
4 | H[dF]DAVFTDNY[β3hT]RLR[β3hK]QLA[β3hV]KKY[β3hL]NAI[β3hL]N (not fully specified (C-terminus); printed as HfDAVFTDNYtRLRkQLAvKKYlNAIlN) [LBT-V126] | 619000 | 344 | – | –
5 | H[ACPC]DAVFTDNY[β3hT]RLR[β3hK]QLA[β3hV]KKY[β3hL]NAI[β3hL]N (not fully specified (C-terminus); printed as HxDAVFTDNYtRLRkQLAvKKYlNAIlN) [LBT-V102] | 5.66 | 4900 | – | –
6 | Ac-HSDAVFTENYTKLRKQLAA[APC]KY[ACPC]NDL[β3hK]KG[βAla]T (not fully specified (C-terminus); printed as Ac-HSDAVFTENYTKLRKQLAAzKYxNDLkKGgT) [LBT-V202] | – | – | > 1000 | 0.963
7 | H[β3hS]DA[β3hV]FTDNY[β3hT]RLR[β3hK]QLA[β3hV]KKY[β3hL]NAI[β3hL]N (not fully specified (C-terminus); printed as HsDAvFTDNYtRLRkQLAvKKYlNAIlN) [LBT-V105] | 64.4 | 716 | – | –
8 | H[dF][β3hD]AVF[β3hT]DNY[β3hT]RLR[β3hK]QLA[β3hV]KKY[β3hL]NAI[β3hL]N (not fully specified (C-terminus); printed as HfdAVFtDNYtRLRkQLAvKKYlNAIlN) [LBT-V130] | 912 | 609 | – | –
9 | H[dF]DA[β3hV]FTDNY[β3hT]RLR[β3hK]QLA[β3hV]KKY[β3hL]NAI[β3hL]N (not fully specified (C-terminus); printed as HfDAvFTDNYtRLRkQLAvKKYlNAIlN) [LBT-V128] | 71.2 | 50.2 | – | –
10 | HS[β3hD]AVF[β3hT]DNY[β3hT]RLR[β3hK]QLA[β3hV]KKY[β3hL]NAI[β3hL]N (not fully specified (C-terminus); printed as HSdAVFtDNYtRLRkQLAvKKYlNAIlN) [LBT-V107] | > 1000 | > 1000 | – | –
11 | H[β3hS]DA[β3hV]FTD[β3hN]Y[β3hT]RLR[β3hK]QLA[β3hV]KKY[β3hL]NAI[β3hL]N (not fully specified (C-terminus); printed as HsDAvFTDnYtRLRkQLAvKKYlNAIlN) [LBT-V106] | 298000 | 503 | – | –
12 | H[dF]DA[ACPC]FTDNY[β3hT]RLR[β3hK]QLA[β3hV]KKY[β3hL]NAI[β3hL]N (not fully specified (C-terminus); printed as HfDAxFTDNYtRLRkQLAvKKYlNAIlN) [LBT-V127] | 89.3 | > 1000 | – | –

Results, then the binder that gave them:

Row | EC 50 vpac1 (Molar), cell-based cAMP assay (VPAC1 receptor [1]) [nM] | EC50 vpac2 (Molar), cell-based cAMP assay (VPAC2 receptor [2]) [nM] | EC 50 vpac1 (Molar), cell-based cAMP assay (VPAC1 receptor [3]) [nM] | EC50 vpac2 (Molar), cell-based cAMP assay (VPAC2 receptor [4]) [nM] | Binder
13 | – | – | 218 | 0.18 | Ac-HSDAVFTENYTKLRKQ[ACPC]AA[APC]KYL[ACPC]DL[β3hK]KGGT (not fully specified (C-terminus); printed as Ac-HSDAVFTENYTKLRKQxAAzKYLxDLkKGGT) [LBT-V203]
14 | – | – | 516 | 0.529 | Ac-H[Aib]DAVFTENYTKLRKQLAA[APC]KY[ACPC]NDL[β3hK]KG[βAla]T (not fully specified (C-terminus); printed as Ac-HBDAVFTENYTKLRKQLAAzKYxNDLkKGgT) [LBT-V204]
15 | – | – | > 1000 | 1.02 | Ac-H[ACPC″]DA[ACPC″]FTE[ACPC″][β3hY]TKLRK[β3hQ]LAA[APC″]KY[ACPC″]NDL[β3hK]KG[βAla]T (not fully specified (C-terminus); printed as Ac-HxDAxFTExyTKLRKqLAAzKYxNDLkKGgT) [LBT-V218]
16 | – | – | 9.51 | 0.422 | Ac-HSDAVFTENYTKLRKQ[ACPC″]AAK[APC″]YL[ACPC″]DLK[β3hK]GGT (not fully specified (C-terminus); printed as Ac-HSDAVFTENYTKLRKQxAAKzYLxDLKkGGT) [LBT-V220]
17 | – | – | 1420 | 1.33 | Ac-H[ACPC″]DA[β3hV]FTENYTK[β3hL]RKQLAA[APC″]KY[ACPC″]NDL[β3hK]KG[βAla]T (not fully specified (C-terminus); printed as Ac-HxDAvFTENYTKlRKQLAAzKYxNDLkKGgT) [LBT-V215]
18 | – | – | 461 | > 1000 | Ac-H[ACPC″]DA[ACPC″]FTE[ACPC″][β3hY]TKLR[β3hK]QLAA[APC″]KY[ACPC″]NDL[β3hK]KG[βAla]T (not fully specified (C-terminus); printed as Ac-HxDAxFTExyTKLRkQLAAzKYxNDLkKGgT) [LBT-V219]
19 | – | – | 785 | 1.17 | Ac-H[ACPC″]DA[ACPC″]FTE[ACPC″][β3hY]TKLRKQ[β3hL]AA[APC″]KY[ACPC″]NDL[β3hK]KG[βAla]T (not fully specified (C-terminus); printed as Ac-HxDAxFTExyTKLRKQlAAzKYxNDLkKGgT) [LBT-V217]
20 | – | – | > 1000 | 1.37 | Ac-H[ACPC″]DA[β3hV]FTENYTKL[β3hR]KQLAA[APC″]KY[ACPC″]NDL[β3hK]KG[βAla]T (not fully specified (C-terminus); printed as Ac-HxDAvFTENYTKLrKQLAAzKYxNDLkKGgT) [LBT-V214]
21 | – | – | 0.195 | 0.0784 | Ac-HSDAVFTDNYTRLRKQ[ACPC″]AAK[APC″]YL[ACPC″]SIK[β3hN]KRY (not fully specified (C-terminus); printed as Ac-HSDAVFTDNYTRLRKQxAAKzYLxSIKnKRY) [LBT-V221]
22 | – | – | 932 | 95.6 | Ac-H[ACPC″]DA[ACPC″]FTE[β3hN][β3hY]TKLRKQLAA[APC″]KY[ACPC″]NDL[β3hK]KG[βAla]T (not fully specified (C-terminus); printed as Ac-HxDAxFTEnyTKLRKQLAAzKYxNDLkKGgT) [LBT-V216]

From patent US20180193423A1 (LONGEVITY BIOTECH, published 2018)
